The target in this assay is T1, HLA-B*44:05 (human).
T1 construct: also called peptide-receptive MHC class I molecule
Nature of the assay: UV peptide exchange, anti-b2m ELISA. An outline of the steps: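 Peptide-receptive HLA-B*44:05 monomers after UV-induced exchange were diluted 100-fold and captured on streptavidin-coated plates for 1 h at 37 °C. Bound complexes were detected with 2 µg/ml HRP-anti-β2m (1 h, 37 °C) and TMB, read at 450 nm. β2m signal reflects peptide-stabilized complex yield.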
(In general: In an ELISA, binding on a coated surface is turned into a signal by an enzyme label.)

Take KEMDPSRQSY: the peptide exchange yield was 50 to 75%. The figure for NEIDIHSIYF is more than 75%; for SESDLVNFI it is 50 to 75%; for AEIEADRSYQ it is 20 to 50%. The figure for GEARGDQVDW is more than 75%; for ELVHMINW it is 20 to 50%.

EEYQDSFERY gave a peptide exchange yield of 20 to 50%. The figure for TEGAVEVKY is 20 to 50%; for AEVTLNNTI it is 50 to 75%; for DENIQKFIW it is 50 to 75%. The figure for AEYSVHKI is 50 to 75%. Then LETSCGSSTAY, with 10 to 20%. With EESLLSSWDF, the peptide exchange yield is 50 to 75%. Regarding SEYPTKNYV, the peptide exchange yield was in the range of 20 to 50%. Then SLAELIAKDW, with 20 to 50%.

In turn, AETSYVKVLEY had a peptide exchange yield of 50 to 75%. Then TEGGTQKTF, with 50 to 75%; and SEAGLTANQY, with 50 to 75%. The figure for QETLAESTW is 50 to 75%; for EENIVAIGI it is 50 to 75%; for GEGTLRLSW it is more than 75%.

As to TEAQRLDCW, the peptide exchange yield was in the range of 50 to 75%. Then TELADLDAAW, with more than 75%; and AAFEDAQGHIW, with more than 75%. The figure for SESMVESKF is 20 to 50%; for MEVDPIGHLYIF it is more than 75%; for AEVGDIIKVHF it is 50 to 75%.

Consider TEQSLYYRQW, for which the peptide exchange yield is 50 to 75%. The figure for SEATHIITI is 50 to 75%; for SEESAGPLL it is 50 to 75%; for EEIFKTLNY it is 50 to 75%.

Molecule SEIDEKVTDL returned a peptide exchange yield of 50 to 75%. For the molecule KEFYPVKEF, the peptide exchange yield was in the range of 20 to 50%. Then AEAEEAMKRL, with 50 to 75%; and TEFSNHINL, with 50 to 75%. The figure for AEYSVHKITSTF is more than 75%; for GEKATMQNL it is 20 to 50%. The figure for MDELEEGESY is 10 to 20%; for EEAVRSVAF it is 50 to 75%. The molecule QTLKAMVQAW registered a peptide exchange yield of 50 to 75%.

Take EESLLSSW: the peptide exchange yield is 50 to 75%. As to RLNEHPSNNW, the peptide exchange yield is 20 to 50%. The figure for AELFLTKSF is more than 75%; for AELEGALQKA it is 20 to 50%; for AEVGDIIKV it is 20 to 50%. The figure for SVISDSPRSW is 50 to 75%. Then SECVKSLSF, with more than 75%; and KEPSQSCIAQY, with 10 to 20%; and SEENTGKTY, with 50 to 75%.

Values taken from patent US20200087363A1 (IMMATICS BIOTECHNOLOGIES, published 2020).
